Measured values as given in patent US20260250651, “CAS12 PROTEINS AND USES THEREOF” (GUANGZHOU REFORGENE MEDICINE CO., LTD., published 2026).

Target: T1, Cas12i-69 (N295R,N260R,G705R)
T1 chain: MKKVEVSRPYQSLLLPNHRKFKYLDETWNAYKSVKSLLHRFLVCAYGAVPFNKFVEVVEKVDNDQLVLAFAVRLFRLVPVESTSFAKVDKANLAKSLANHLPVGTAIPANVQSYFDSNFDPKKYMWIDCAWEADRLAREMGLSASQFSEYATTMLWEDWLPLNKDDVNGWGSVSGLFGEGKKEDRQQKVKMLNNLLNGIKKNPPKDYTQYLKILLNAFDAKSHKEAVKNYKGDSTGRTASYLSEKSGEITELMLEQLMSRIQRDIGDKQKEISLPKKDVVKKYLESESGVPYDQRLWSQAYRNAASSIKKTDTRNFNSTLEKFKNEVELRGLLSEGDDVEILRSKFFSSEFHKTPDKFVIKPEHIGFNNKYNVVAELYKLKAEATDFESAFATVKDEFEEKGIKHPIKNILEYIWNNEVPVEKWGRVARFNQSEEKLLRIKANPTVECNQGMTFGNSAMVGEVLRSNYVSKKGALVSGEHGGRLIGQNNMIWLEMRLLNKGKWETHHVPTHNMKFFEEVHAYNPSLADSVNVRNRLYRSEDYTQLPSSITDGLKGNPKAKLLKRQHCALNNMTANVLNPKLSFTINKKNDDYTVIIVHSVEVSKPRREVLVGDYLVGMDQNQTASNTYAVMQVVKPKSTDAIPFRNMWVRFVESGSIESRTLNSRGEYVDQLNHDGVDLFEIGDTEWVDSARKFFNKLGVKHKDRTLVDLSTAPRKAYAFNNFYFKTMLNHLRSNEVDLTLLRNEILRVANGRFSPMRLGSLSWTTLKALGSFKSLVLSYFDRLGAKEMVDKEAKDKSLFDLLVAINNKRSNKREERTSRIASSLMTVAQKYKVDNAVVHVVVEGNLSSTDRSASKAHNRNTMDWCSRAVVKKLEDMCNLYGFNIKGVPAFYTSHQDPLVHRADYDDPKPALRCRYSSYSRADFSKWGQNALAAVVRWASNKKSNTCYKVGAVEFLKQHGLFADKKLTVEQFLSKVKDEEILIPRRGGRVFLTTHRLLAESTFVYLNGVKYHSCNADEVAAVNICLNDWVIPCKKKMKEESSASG
Assay: cell_activity; 293T indels; editing >3%
Description: Plating: The 293T cell line was plated when the confluence reached 70-80%, and the number of cells seeded in a 24-well plate was 5*10\hat{ }5 cells/well.
Transfection: After 12-14 hours of plating, transfection was performed. 100 μl of Opti-MEM, 1.5 μl of PEI (Yisheng Bio, Polyethylenimine Linear (PEI) MW25000), 250 ng of the mutant clone plasmid from Example 2, and 250 ng of gRNA plasmid for targeting endogenous genes were added to each well of a 24-well plate. The mixture was incubated at room temperature for 20 minutes and then added to 293T cells for transfection. After transfection overnight, the medium was replaced with fresh medium and cultured for the next period.
DNA extraction, PCR amplification, and Sanger sequencing: After culturing for 72 hours, cells were washed with PBS, and then 100 μl of cell lysis buffer (Viagen, DirectPCR® Lysis Reagent (Cell)) was added for lysis to obtain a lysate containing genomic DNA. The genomic DNA was amplified in the region near the target sequence, and the PCR product was sent to a sequencing company for Sanger sequencing.

B1: gRNA-HBG ; HBG target (ssRNA ; dsDNA)
RNA: AGAGAAUGUGUGCAUAGUCACACACAAGGCAAACUUGACCAAU
DNA 1: ACAAGGCAAACTTGACCAAT
DNA 2: ATTGGTCAAGTTTGCCTTGT
relative indel editing efficiency: 1.27 fold of wild type
